The source of these data is PMC8181454.

The assay has as its target recombinant HPV16 E6 protein (human papillomavirus type 16) (UniProt P03126). Nature of the assay: SPR. (In SPR one partner is held on a chip, and binding of the other changes the refractive index at the surface.)
Sequence of UniProt P03126 (P03126 whole entry): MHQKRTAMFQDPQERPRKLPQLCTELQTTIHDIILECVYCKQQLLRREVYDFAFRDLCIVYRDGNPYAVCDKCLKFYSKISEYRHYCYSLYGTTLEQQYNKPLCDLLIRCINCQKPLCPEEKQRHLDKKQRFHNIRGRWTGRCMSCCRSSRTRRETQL

As to “ZWT affibody (original affibody scaffold molecule, wild-type Z domain) (designed binder)”, the off-rate (koff) is 0.000886 s⁻¹.

As usually defined, the koff is the first-order rate constant of dissociation.
